# Laboratory results from article PMC10147923, “Pain-causing stinging nettle toxins target TMEM233 to modulate NaV1.7 function” (Nature Communications, 2023).
# Assays:
# TMEM233 (human) [1] = biological target: TMEM233 (human) (UniProt B4DJY2)
# TMEM233 (human) [2] = biological target: TMEM233 (human) (UniProt B4DJY2); assay: fluorescent ligand binding to cells (plate reader); ExTxA-488 (1–300 nM) with mock- or TMEM233-transfected HEK293 and HEK293-NaV1.7 cells in suspension, 250 mM NaCl, 25 mM HEPES, pH 7, 30 min at 4 °C, washed three times; fluorescence intensity read in 384-well plate; EC50 told for NaV1.7/TMEM233 co-expressing cells
# Chain of TMEM233 (human) (B4DJY2 whole entry): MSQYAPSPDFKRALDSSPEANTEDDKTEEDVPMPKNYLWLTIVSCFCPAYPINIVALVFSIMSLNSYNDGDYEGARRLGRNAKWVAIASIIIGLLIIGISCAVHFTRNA
# Chain of Alexa488-tagged excelsatoxin A (peptide) (P0DQP3 38-73 limits assumed): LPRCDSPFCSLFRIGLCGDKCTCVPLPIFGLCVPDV
substance,measurement,setting,value
Alexa488-tagged excelsatoxin A (peptide),EC50 of functional potency on NaV1.7 inactivation in NaV1.7/TMEM233 co-expressing cells (electrophysiology),TMEM233 (human) [1],80.9 nM
same,EC50,TMEM233 (human) [2],126 nM
